Laboratory results as given in the supplement of paper PMC10567573.

B1: C10orf62 (parent)
chain: RALEEVEMKLQKNFLTQRENTIAG
B2: DFFB (parent)
chain: TLVEAIKEQDGREVDWEYFYGLLF

Variants of: B1
Experiment: protein stability index of a GFP-peptide fusion (GPS, HEK-293T) (PSI 1-6); higher = more stable
Conditions: c terminus: a fixed tail appended
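Also: lentivirally expressed fusions sorted by FACS into six bins by GFP to DsRed ratio, PSI derived from sequencing read proportions per bin multiplied by bin number.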

Protein stability index, by site and new letter:
R18: L 2.08, I 3.09, P 3.72, K 3.74, A 3.19, F 2.53, E 4.29, Y 2.64, V 2.35, M 3.12, W 2.47, Q 3.85, G 3.73, S 4.18, D 4.59, C 2.91, N 4.05, T 3.46, H 3.96
E19: Y 1.81, C 2.33, T 2.92, V 2.3, N 3.2, D 3.78, S 3.37, Q 2.84, F 1.86, H 3.13, G 3.31, M 2.65, R 3.12, A 3.82, K 3.53, I 2.04, P 2.85, W 2.05, L 2.04
F14: C 4.29, T 4.11, P 4.66, G 4.11, H 4.47, M 3.82, W 3.61, R 4.33, K 4.11, V 3.97, S 4.37, Y 3.69, N 4.49, A 4.72, L 4.64, Q 4.45, I 3.86, E 4.61, D 4.66
T21: S 4.06, C 3.73, R 3.2, W 2.93, N 3.61, E 4.16, V 3.36, D 3.92, M 3.27, F 2.86, L 3.2, Q 3.85, Y 2.69, P 3.7, I 3.34, A 3.56, G 3.23, H 3.69, K 3.51
I22: G 4.34, F 2.68, D 4.11, L 3.21, Q 4.09, T 3.89, H 3.8, A 4.15, C 3.92, N 3.98, E 4.75, V 3.59, R 3.15, M 3.54, Y 3.38, W 2.38, S 3.88, P 3.38
T16: D 4.09, F 3.26, R 2.81, L 2.79, A 2.98, C 3.24, M 3.23, V 3.16, S 3.64, W 2.97, K 3.54, G 4.06, P 3.09, Q 3.45, I 3.06, N 2.83, Y 2.74, E 3.91, H 3.44
Q17: Y 2.48, L 3.03, V 3.06, T 3.2, N 3.89, M 3.56, F 2.13, E 3.96, I 2.89, C 3.21, H 3.31, P 3.69, D 4.13, A 3.42, R 2.74, G 3.73, K 3.5, S 3.85, W 2.92
A23: V 3.44, G 3.41, D 4.19, M 3.05, W 2.07, K 4.31, P 3.93, E 4.28, C 3.36, N 3.2, T 3.67, H 3.19, S 3.42, F 2.66, L 3.02, I 3.02, Q 3.64, Y 2.91, R 3.51
N20: D 3.96, K 3.75, Y 2.64, M 3.18, R 3.29, G 3.6, S 3.7, P 3.73, L 2.45, Q 3.81, V 3.35, W 2.03, T 3.7, I 2.61, E 4.17, H 2.85, A 3.24, C 3.07, F 2.52
N13: W 1.36, A 2.58, Q 3.4, E 3.92, L 2.86, F 2.23, V 3, K 3.3, S 3.52, Y 2.62, I 1.76, C 3.23, D 3.89, G 3.15, H 2.72, T 3.31, P 3.96, M 3.02, R 3.42
G24: Y 2.18, T 3.76, W 3.48, M 3.08, A 3.4, V 2.85, S 3.43, L 2.65, C 3.23, F 2.37, H 3.07, I 2.31, R 3.5, Q 3.6, D 4.37, K 4.19, E 4.04, P 3.71, N 3.45
L15: P 3.89, E 4.3, N 3.99, K 4.21, M 3.62, I 3.71, Q 4.84, G 3.9, A 3.92, S 4.38, R 3.94, D 4.69, C 3.44, T 3.66, H 3.85, W 2.63, V 3.77, Y 3.71
K12: Q 3.72, E 4.05, P 4.14, H 3.43, D 4.03, L 2.67, S 2.77, T 4.2, M 2.86, R 3.31, V 2.31, W 1.94, N 4.44, G 3.77, F 2, C 3.3, A 3.77, I 2.15, Y 2.3
Q11: Y 2.78, W 1.98

Variants of: B2
Experiment: as above
Conditions: c terminus: a fixed tail appended

Protein stability index: each site, then its substitutions
L2: D 2.17, Y 1.71, H 1.92, E 3.08, A 3.03, I 2.35, M 2.15, T 2.2, Q 1.41, F 1.95, P 2.41, C 2.16, S 3.15, G 2.5, W 1.92, V 2.4, N 2.31, R 2.77
T1: F 2.56, N 2.02, G 2.05, A 2.32, W 1.65, H 1.89, L 1.58, D 2.24, S 1.41, Q 2.37, K 2.37, V 3.13, P 2.54, M 1.31, Y 2.13, R 1.59, E 2.9
V3: L 2.22, F 2, R 2.23, D 2.65, A 1.95, M 2.28, P 2.16, K 2.88, I 3.34, C 1.94, N 2.21, S 3.22, T 2.53, Y 1.39, Q 1.88, W 1.76, E 2.86, G 1.58, H 2.16
E4: D 1.68, G 2.26, P 2.08, C 2.92, W 1.76, K 2.99, Q 1.97, S 2.62, A 1.37, I 1.57, T 1.58, H 1.97, V 2.87, F 2.38, L 1.93, N 2.11
A5: R 2.29, K 1.89, H 1.98, Q 2.4, S 2.15, I 1.36, P 2.74, G 2.68, E 2.29, V 1.48, F 1.89, N 2.11, D 2.54, C 1.95, M 2.35, T 2.88, W 2.84
